Paper PMC10044410

Key:
[1] = target: GroEL (wild type, recombinant, from pET22b-groL) (E. coli) (UniProt P0A6F5); assay: SEC
[2] = target: FM-CnoX (fluorescein-5-maleimide-labeled CnoX) (E. coli) (UniProt P77395); assay: fluorescence polarisation
[3] = target: FM-CnoX (fluorescein-5-maleimide-labeled CnoX) (E. coli) (UniProt P77395); assay: other fluorescence titration

| stoichiometry N (CnoX per GroEL double ring) [1] | Kd [2] [nM] | Kd [3] [nM] | Substance |
| --- | --- | --- | --- |
| 1 | – | – | CnoX (wild type, recombinant, from pET22b-cnoX) (from UniProt P77395 1-284) (natural protein) |
| – | 310 | 350 | GroEL (untagged, from pET15b, for quantitative binding studies) (from UniProt P0A6F5 1-548) (natural protein) |
